These results are taken from the supplement of paper PMC7125110.

± gives the standard error. For part of these data: Fewer inactive variants are shown than the library holds.

Sequences and labels used below:
B1: glmS ribozyme (parent)
chain: AUAAAAGCGCCAGAACUACAGAAAUGUAGUUGACGAGGAGGAGGUUUAUCGAAUUUUCGGCGGAUGCCUCCAAA

Common to all, as to settings: with glucosamine-6-phosphate
The variants in data set [1] derive from B1. As to the kind of experiment: kcat; higher = faster cleavage; RNA array. An outline of the steps: (§1)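 Barcoded ribozyme variants on sequenced MiSeq chips were transcribed in situ by E. coli RNA polymerase and followed at 37 °C through a hybridised Cy3 probe. Glucosamine-6-phosphate at 40 μM to 10 mM in HEPES/KCl/Mg(OAc)2 buffer was flowed in, and tiles were imaged over ~14 h. Signals were normalised to baseline and to non-cleaving reference variants, and per-tile medians were fit to one- or two-exponential decays to give kobs. Weighted Michaelis–Menten fits across concentrations gave kcat and KM.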

The variants in data set [2] derive from B1. The experiment in a line: KM; higher = weaker cofactor use; RNA array. An outline of the steps: as §1
Variants of B1 are the subject of data set [3]. The experiment in a line: self-cleavage kobs at 640 uM GlcN6P; higher = faster cleavage; RNA array. An outline of the steps: as §1
Variants of B1 are the subject of data set [4]. As to the kind of experiment: self-cleavage kobs at 2500 uM GlcN6P; higher = faster cleavage; RNA array. An outline of the steps:
as §1

Variants of B1 are the subject of data set [5]. As to the kind of experiment: self-cleavage kobs at 10000 uM GlcN6P; higher = faster cleavage; RNA array. An outline of the steps: as §1
In data set [6] the parent is B1. As to the kind of experiment: self-cleavage kobs at 40 uM GlcN6P; higher = faster cleavage; RNA array. An outline of the steps: as §1
In data set [7] the parent is B1. The experiment in a line: self-cleavage kobs at 160 uM GlcN6P; higher = faster cleavage; RNA array. An outline of the steps: as §1

A48U A53U: the catalytic constant (kcat) with glucosamine-6-phosphate [1] worked out at 0.000308 ± 4.1e-05 s⁻¹. For the same variant, in the data set with glucosamine-6-phosphate [2], the KM came to 1960 ± 750 µM. Besides, in the data set with glucosamine-6-phosphate [3], the “self-cleavage kobs at 640 uM GlcN6P” value was determined as 0.000104 ± 3.1e-05 s⁻¹. For the same variant, the “self-cleavage kobs at 2500 uM GlcN6P” value with glucosamine-6-phosphate [4] stood at 0.000161 ± 2e-05 s⁻¹. Also, the “self-cleavage kobs at 10000 uM GlcN6P” value in the data set with glucosamine-6-phosphate [5] amounted to 0.000265 ± 2.8e-05 s⁻¹.
As for A14G A15U G40U, the kcat in the data set with glucosamine-6-phosphate [1] is 0.00322 ± 0.00023 s⁻¹. Moreover, in the data set with glucosamine-6-phosphate [2], the KM turned out to be 690 ± 78 µM. Moreover, the “self-cleavage kobs at 40 uM GlcN6P” value in the data set with glucosamine-6-phosphate [6] turned out to be 0.00018 ± 3.4e-05 s⁻¹. Moreover, in the data set with glucosamine-6-phosphate [3], the “self-cleavage kobs at 640 uM GlcN6P” value was 0.00146 ± 0.00029 s⁻¹. The “self-cleavage kobs at 2500 uM GlcN6P” value with glucosamine-6-phosphate [4] is 0.00279 ± 0.0008 s⁻¹. Also, the “self-cleavage kobs at 10000 uM GlcN6P” value in the data set with glucosamine-6-phosphate [5] was found to be 0.00298 ± 0.00083 s⁻¹.
In the case of A39C U45C, the kcat with glucosamine-6-phosphate [1] came out at 0.000523 ± 3.8e-05 s⁻¹. Besides, the KM with glucosamine-6-phosphate [2] is 3080 ± 440 µM. Besides, the “self-cleavage kobs at 640 uM GlcN6P” value in the data set with glucosamine-6-phosphate [3] came out at 9.68e-05 ± 1.7e-05 s⁻¹. For the same variant, in the data set with glucosamine-6-phosphate [4], the “self-cleavage kobs at 2500 uM GlcN6P” value worked out at 0.000214 ± 3.8e-05 s⁻¹. In the data set with glucosamine-6-phosphate [5], the “self-cleavage kobs at 10000 uM GlcN6P” value was found to be 0.000408 ± 4.5e-05 s⁻¹.
As to C50U A64C, in the data set with glucosamine-6-phosphate [1], the turnover number (kcat) was less than 1e-05 s⁻¹. The “self-cleavage kobs at 160 uM GlcN6P” value in the data set with glucosamine-6-phosphate [7] is less than 1e-05 s⁻¹. In addition, in the data set with glucosamine-6-phosphate [3], the “self-cleavage kobs at 640 uM GlcN6P” value was less than 1e-05 s⁻¹. In the data set with glucosamine-6-phosphate [5], the “self-cleavage kobs at 10000 uM GlcN6P” value was less than 1e-05 s⁻¹.
As for U56A U57G, the kcat in the data set with glucosamine-6-phosphate [1] came out at 0.000127 ± 3.4e-05 s⁻¹. The “self-cleavage kobs at 640 uM GlcN6P” value with glucosamine-6-phosphate [3] was 3.45e-05 ± 1.3e-05 s⁻¹. Further, the “self-cleavage kobs at 2500 uM GlcN6P” value with glucosamine-6-phosphate [4] was found to be 4.92e-05 ± 1e-05 s⁻¹. Further, the “self-cleavage kobs at 10000 uM GlcN6P” value in the data set with glucosamine-6-phosphate [5] was determined as 0.000102 ± 2e-05 s⁻¹.
For C10G C11G, in the data set with glucosamine-6-phosphate [1], the catalytic constant (kcat) was less than 1e-05 s⁻¹. Also, in the data set with glucosamine-6-phosphate [6], the “self-cleavage kobs at 40 uM GlcN6P” value is less than 1e-05 s⁻¹. Also, the “self-cleavage kobs at 160 uM GlcN6P” value in the data set with glucosamine-6-phosphate [7] was less than 1e-05 s⁻¹.
Regarding G66C C67G, the kcat in the data set with glucosamine-6-phosphate [1] was found to be 2.61e-05 ± 7.8e-06 s⁻¹. Moreover, the “self-cleavage kobs at 640 uM GlcN6P” value with glucosamine-6-phosphate [3] amounted to 2.84e-05 ± 1.3e-05 s⁻¹.
On to A52G C67U, for which, in the data set with glucosamine-6-phosphate [1], the catalytic constant (kcat) was found to be 0.000905 ± 0.00016 s⁻¹. The Michaelis constant (KM) in the data set with glucosamine-6-phosphate [2] worked out at 2370 ± 740 µM. Also, in the data set with glucosamine-6-phosphate [6], the “self-cleavage kobs at 40 uM GlcN6P” value turned out to be 2.66e-05 ± 1.3e-05 s⁻¹. Further, the “self-cleavage kobs at 160 uM GlcN6P” value with glucosamine-6-phosphate [7] was 7.98e-05 ± 1.7e-05 s⁻¹. Also, the “self-cleavage kobs at 640 uM GlcN6P” value in the data set with glucosamine-6-phosphate [3] was determined as 0.000166 ± 2.3e-05 s⁻¹. Moreover, in the data set with glucosamine-6-phosphate [4], the “self-cleavage kobs at 2500 uM GlcN6P” value amounted to 0.000524 ± 8.6e-05 s⁻¹. In addition, in the data set with glucosamine-6-phosphate [5], the “self-cleavage kobs at 10000 uM GlcN6P” value worked out at 0.000728 ± 8.4e-05 s⁻¹.
Take A15C U46C: the kcat with glucosamine-6-phosphate [1] was found to be 0.000304 ± 5.3e-05 s⁻¹. The KM with glucosamine-6-phosphate [2] amounted to 1330 ± 520 µM. In addition, in the data set with glucosamine-6-phosphate [3], the “self-cleavage kobs at 640 uM GlcN6P” value was 0.000119 ± 1.9e-05 s⁻¹. In the data set with glucosamine-6-phosphate [4], the “self-cleavage kobs at 2500 uM GlcN6P” value turned out to be 0.000176 ± 2.5e-05 s⁻¹. Besides, the “self-cleavage kobs at 10000 uM GlcN6P” value with glucosamine-6-phosphate [5] was found to be 0.000295 ± 4.8e-05 s⁻¹.
On to U31C G63U, for which the turnover number (kcat) in the data set with glucosamine-6-phosphate [1] is less than 1e-05 s⁻¹. Besides, in the data set with glucosamine-6-phosphate [4], the “self-cleavage kobs at 2500 uM GlcN6P” value is less than 1e-05 s⁻¹.
With C16G G29U U54A, in the data set with glucosamine-6-phosphate [1], the kcat came out at 0.024 ± 0.011 s⁻¹. Also, the “self-cleavage kobs at 40 uM GlcN6P” value in the data set with glucosamine-6-phosphate [6] was 0.000213 ± 4.2e-05 s⁻¹. The “self-cleavage kobs at 160 uM GlcN6P” value with glucosamine-6-phosphate [7] worked out at 0.000446 ± 0.00014 s⁻¹. Besides, the “self-cleavage kobs at 640 uM GlcN6P” value with glucosamine-6-phosphate [3] was 0.00332 ± 0.00054 s⁻¹. The “self-cleavage kobs at 2500 uM GlcN6P” value with glucosamine-6-phosphate [4] was 0.0157 ± 0.0041 s⁻¹. In addition, the “self-cleavage kobs at 10000 uM GlcN6P” value in the data set with glucosamine-6-phosphate [5] is 0.0148 ± 0.0026 s⁻¹.
Turning to C58G C61G, the kcat with glucosamine-6-phosphate [1] was 3.21e-05 ± 1e-05 s⁻¹. Besides, the “self-cleavage kobs at 640 uM GlcN6P” value with glucosamine-6-phosphate [3] is 5.63e-05 ± 2.4e-05 s⁻¹.
Consider C61A C68U, for which the kcat with glucosamine-6-phosphate [1] was 1.56e-05 ± 2e-06 s⁻¹.
Turning to U30A C58A, the catalytic constant (kcat) in the data set with glucosamine-6-phosphate [1] amounted to 0.000164 ± 5e-05 s⁻¹. For the same variant, the “self-cleavage kobs at 2500 uM GlcN6P” value in the data set with glucosamine-6-phosphate [4] amounted to 9.07e-05 ± 2.9e-05 s⁻¹. Besides, in the data set with glucosamine-6-phosphate [5], the “self-cleavage kobs at 10000 uM GlcN6P” value came out at 0.000114 ± 2.4e-05 s⁻¹.
Regarding G9A, the kcat with glucosamine-6-phosphate [1] was determined as 3.95e-05 ± 2.5e-06 s⁻¹. Also, in the data set with glucosamine-6-phosphate [2], the Michaelis constant (KM) was determined as 5140 ± 880 µM. For the same variant, in the data set with glucosamine-6-phosphate [6], the “self-cleavage kobs at 40 uM GlcN6P” value was less than 1e-05 s⁻¹. Besides, the “self-cleavage kobs at 160 uM GlcN6P” value with glucosamine-6-phosphate [7] was less than 1e-05 s⁻¹. The “self-cleavage kobs at 2500 uM GlcN6P” value with glucosamine-6-phosphate [4] came to 1.33e-05 ± 3e-06 s⁻¹. For the same variant, the “self-cleavage kobs at 10000 uM GlcN6P” value with glucosamine-6-phosphate [5] stood at 2.61e-05 ± 1.5e-06 s⁻¹.
Take U46G C71U: the kcat with glucosamine-6-phosphate [1] was 0.00721 ± 0.0015 s⁻¹. Moreover, the KM with glucosamine-6-phosphate [2] came out at 1750 ± 550 µM. In the data set with glucosamine-6-phosphate [6], the “self-cleavage kobs at 40 uM GlcN6P” value turned out to be 0.00018 ± 1.7e-05 s⁻¹. For the same variant, the “self-cleavage kobs at 160 uM GlcN6P” value with glucosamine-6-phosphate [7] is 0.000349 ± 8.8e-05 s⁻¹. Besides, the “self-cleavage kobs at 640 uM GlcN6P” value in the data set with glucosamine-6-phosphate [3] was 0.00219 ± 0.00026 s⁻¹. In addition, the “self-cleavage kobs at 2500 uM GlcN6P” value with glucosamine-6-phosphate [4] stood at 0.00497 ± 0.00059 s⁻¹. In addition, the “self-cleavage kobs at 10000 uM GlcN6P” value in the data set with glucosamine-6-phosphate [5] stood at 0.00576 ± 0.00058 s⁻¹.
As for A33C A36C G43A A52U, the catalytic constant (kcat) in the data set with glucosamine-6-phosphate [1] was less than 1e-05 s⁻¹.
On to G29C A53C, for which, in the data set with glucosamine-6-phosphate [1], the kcat was found to be 0.000417 ± 2.8e-05 s⁻¹. Also, the KM with glucosamine-6-phosphate [2] came out at 1380 ± 180 µM. Further, the “self-cleavage kobs at 160 uM GlcN6P” value with glucosamine-6-phosphate [7] stood at 4.1e-05 ± 1.7e-05 s⁻¹. Further, the “self-cleavage kobs at 640 uM GlcN6P” value with glucosamine-6-phosphate [3] was 0.00013 ± 1.7e-05 s⁻¹. The “self-cleavage kobs at 2500 uM GlcN6P” value in the data set with glucosamine-6-phosphate [4] worked out at 0.00029 ± 4.5e-05 s⁻¹. Also, in the data set with glucosamine-6-phosphate [5], the “self-cleavage kobs at 10000 uM GlcN6P” value stood at 0.000356 ± 5.1e-05 s⁻¹.

What is called kcat is the number of substrate molecules converted per active site and unit of time at saturation. One may read the KM as the substrate concentration at which the rate is half of its maximum.
